This is an account of results in patent publication US12448436B2, “Antibody specifically binding to GRP94 or antigen-binding fragment thereof, and uses thereof” (KOOKMIN UNIVERSITY INDUSTRY ACADEMY COOPERATION FOUNDATION, priority 2020, dated 2025).

The target of one series is recombinant monkey GRP94 (Macaca fascicularis, UniProt Q4R520). Briefly: ELISA binding to recombinant monkey GRP94. Here is the method:
(§1) Each well of 96-well plates was coated with 0.1 μg of recombinant human GRP94 (rhGRP94), blocked with 3% (w/v) bovine serum albumin (BSA) in phosphate buffered saline (PBS) for 2 hours at 37° C., and incubated with 100 μL of GRP94 targeting IgG (20 μg/mL) for 2 hours at 37° C. The plates were washed thrice with 0.05% PBS-T, and 100 μL of a 500:1 dilution of the secondary antibody anti-human Fc Ab (Sigma-Aldrich) was added to each well. Incubation at 37° C. for 1 hour was followed by three rounds of washing with 0.05% PBS-T. Then, 100 μL of 3,3′,5,5′-tetramethylbenzidine (1-step ultra TMB) substrate solution was added to each well. Finally, optical densities were measured at 450 nm using a microplate reader (Synergy H1, BioTek).
(§2) After 96-well plates were coated with BSA, recombinant human GRP94, recombinant rat GRP94, and recombinant monkey GRP94, their binding affinity for each antibody (B5, E5, 2H5, or 3G7) was measured by ELISA.

A further series relates to HCT8 cells. As to the kind of experiment: In vitro CRC proliferation assay, HCT8. The class given is cell-based, human. Conditions: 20 μg/mL; for cell index at the end point: 72 hours, MOCK 4.8±0.25; for cell growth inhibitory ability: end point, relative to the control PBS. Here is the method: (§3) The four anti-GRP94 human IgG antibodies B5, E5, 2H5, and 3G7 of the present disclosure were examined in vitro for effect on CRC cell proliferation. […] The culture medium was removed by suction and the cells were washed with 10 mL of phosphate buffered saline (hereinafter PBS). After removal of PBS by suction, the cells were treated 2 mL of TrypLE Express Enzyme at 37° C. for 3 minutes in a 5% CO2 incubator. Thereafter, the cells were added with 8 mL of the culture medium, transferred to 15-mL tube, and centrifuged at 500×g for 5 minutes. After removal of the supernatant, the cells were suspended in the culture medium. From a small portion of the cell suspension, the cells were counted using the Countess II Automated Cell Counter. […] The 96-well plates were mounted on the Incucyte Zoom system. With the microscope magnification set at 4×, images were collected at intervals of 2 hours for 72 hours. From the collected images, cell growth was monitored using the IncuCyte FLR live content imaging system (Essen Bioscience, Ann Arbor, MI, USA).

A further series has as its system LoVo cells. As to the kind of experiment: In vitro CRC proliferation assay, LoVo. The following applies: 20 μg/mL; for cell index at the end point: 72 hours, MOCK 3.76±0.19; for cell growth inhibitory ability: end point, relative to the control PBS. The class given is cell-based, human. Here is the method: as §3
Another series concerns HT29 cells. Briefly: In vitro CRC proliferation assay, HT29. The following applies: 20 μg/mL; for cell index at the end point: 72 hours, MOCK 2.94±0.04; for cell growth inhibitory ability: end point, relative to the control PBS. In kind it is cell-based, human. The procedure: as §3
The target in the next series is recombinant rat GRP94 (Rattus norvegicus, UniProt Q66HD0). As to the kind of experiment: ELISA binding to recombinant rat GRP94. The following applies: high specificity stated for human and rat antigens. Here is the method: as §1, §2
For orientation: ELISA stands for enzyme-linked immunosorbent assay.

Series [1] can be described thus: In vivo hepatotoxicity and nephrotoxicity in colorectal xenograft model. More on the design: species or system Balb/c nude mice. The following applies: mouse, 10 mg/kg. Here is the method:
To assay the four antibodies of the present disclosure for in vivo hepatotoxicity and nephrotoxicity, the same xenograft model as in Example 11 weighed every week. After six weeks of the experiment, GOT (glutamic oxaloacetic transaminase), GPT (glutamate pyruvate transaminase), and TBIL (total bilirubin) were measured for hepatotoxicity assay while BUN (blood urea nitrogen) and CRE (creatinine) were measured for nephrotoxicity assay. The results are depicted in FIGS. 27a and 27b.

For series [2], the system named is HCT116 subcutaneous xenograft. Briefly: Tumor growth inhibition by sole administration, colorectal xenograft model. In kind it is in vivo, Balb/c nude mice. Conditions: 10 mg/kg intravenous twice per week for six weeks; for tumor growth inhibition compared to PBS: n=9. The source says:
For use in assaying in-vivo efficacy of the four antibodies of the present disclosure, a subcutaneous xenograft mouse model was established by injecting the metastatic colorectal cancer cell line HCT116 (5×10^6 cells) into 6-week-old Balb/c nude mice.

For a further series, the target named is T1, recombinant human GRP94 (Homo sapiens, UniProt P14625).
T1 construct: made in house; host or cells: Expi293 cells (pcDNA 3.4)
As to the kind of experiment: ELISA binding to recombinant human GRP94. The following applies: high specificity stated for human and rat antigens. The procedure:
as §1
The four GRP94 IgGs (B5, E5, 2H5, and 3G7) of the present disclosure were measured for equilibrium dissociation constant (KD). In this regard, each well of 96-well plates was coated with 100 ng of rhGRP94 and blocked with 3% (w/v) bovine serum albumin (BSA) in PBS at 37° C. for 2 hours. Next, the plates were incubated with a concentration gradient of 0 nM to 500 nM of each clone for the GRP94 IgGs at 37° C. for 2 hours. The use of a secondary antibody and the measurement of optical density were conducted as described for the ELISA.
as §2

In series [3] the target is T2, rhGRP94 CTD fragment (part 4, Glu 602-Glu 799) (Homo sapiens, UniProt P14625).
T2 construct: Part; 4 (Glu 602-Glu 799) of the human GRP94 gene (Gene ID: 7184); made in house; host or cells: Expi293 expression system (pcDNA 3.4)
Briefly: Epitope comparison ELISA, rhGRP94 fragment part 4. The following applies: antibody 1 μg/mL, 100 ng fragment. In kind it is binding. The source says: To determine which portion (or domain) of the GRP94 protein is bound by the developed antibodies, GRP94 fragments part. 1 and part. 4 were constructed wherein part. 1 was composed of the N-terminal domain (NTD), the Ca^2+ binding domain, the middle domain (MD), and the C-terminal domain (CTD) while part. 4 was derived from part. 1 by cutting off the NTD, the Ca^2+ binding domain, and the MD. In brief, Part. 1 (Asp 22-Glu 799) and Part. 4 (Glu 602-Glu 799) of the human GRP94 gene (Gene ID: 7184) were synthesized and subcloned into pcDNA 3.4 (Invitrogen) mammalian expression vector to finally recombinant DNAs. Using the Expi293 expression system (Invitrogen), the proteins were expressed and purified. The purified antigens part. 1 and part. 4 were analyzed for molecular weight by SDS-PAGE.
Next, ELISA was carried out to examine whether the four antibodies of the present disclosure bind to part 1 and part 4. First, 100 ng of each of the rhGRP94 fragment parts 1 and 4 was fixed to a high binding plate by incubation at 4° C. for 14 hours (overnight binding, 14 hrs). The same amount of BSA was used as a negative control. Then, the plate was blocked with 3% BSA, followed by incubation at 37° C. for 2 hours with 100 μL containing each of the anti-GRP94 antibodies (B5, E5, 2H5, and 3G7) of the present disclosure at a density of 1 μg/mL. After three rounds of washing with PBS-T, the plate was treated at 37° C. for 1 hour with a 5000:1 dilution of anti-Fc-HRP (Catalog #31423 Invitrogen). Color development was induced using 1-step-ultra TMB (Invitrogen) for 10 minutes and then terminated with […] (2N). Absorbance at 450 nm was read.

“Also recorded” adds a separate entry of the source.

recombinant monkey GRP94, sequence (Q4R520 22-804): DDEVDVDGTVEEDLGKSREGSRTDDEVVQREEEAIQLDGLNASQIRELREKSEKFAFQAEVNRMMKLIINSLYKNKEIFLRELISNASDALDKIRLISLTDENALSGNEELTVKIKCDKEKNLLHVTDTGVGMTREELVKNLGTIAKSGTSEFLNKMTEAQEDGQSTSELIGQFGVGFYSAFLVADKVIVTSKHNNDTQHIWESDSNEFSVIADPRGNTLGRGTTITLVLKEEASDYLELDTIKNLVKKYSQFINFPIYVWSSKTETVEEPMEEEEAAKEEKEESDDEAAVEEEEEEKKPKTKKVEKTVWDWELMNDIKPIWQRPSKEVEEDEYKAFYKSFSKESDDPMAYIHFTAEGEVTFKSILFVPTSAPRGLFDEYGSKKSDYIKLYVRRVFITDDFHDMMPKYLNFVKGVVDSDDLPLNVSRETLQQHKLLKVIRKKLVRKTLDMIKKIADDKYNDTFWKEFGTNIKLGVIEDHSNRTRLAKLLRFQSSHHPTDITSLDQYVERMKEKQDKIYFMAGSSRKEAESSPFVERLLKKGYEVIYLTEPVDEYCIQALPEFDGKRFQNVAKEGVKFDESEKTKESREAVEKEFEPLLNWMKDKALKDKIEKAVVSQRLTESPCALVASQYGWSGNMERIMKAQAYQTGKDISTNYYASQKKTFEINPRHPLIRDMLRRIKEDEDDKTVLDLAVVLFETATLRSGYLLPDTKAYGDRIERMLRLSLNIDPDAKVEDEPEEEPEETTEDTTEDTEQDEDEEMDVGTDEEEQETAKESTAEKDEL
T2 sequence (P14625 602-799): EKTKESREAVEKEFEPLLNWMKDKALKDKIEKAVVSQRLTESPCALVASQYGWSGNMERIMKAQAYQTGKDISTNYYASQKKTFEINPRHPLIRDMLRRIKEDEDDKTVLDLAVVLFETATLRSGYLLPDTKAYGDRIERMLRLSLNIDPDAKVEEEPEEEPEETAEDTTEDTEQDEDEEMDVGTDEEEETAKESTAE
T1 sequence (P14625 22-803): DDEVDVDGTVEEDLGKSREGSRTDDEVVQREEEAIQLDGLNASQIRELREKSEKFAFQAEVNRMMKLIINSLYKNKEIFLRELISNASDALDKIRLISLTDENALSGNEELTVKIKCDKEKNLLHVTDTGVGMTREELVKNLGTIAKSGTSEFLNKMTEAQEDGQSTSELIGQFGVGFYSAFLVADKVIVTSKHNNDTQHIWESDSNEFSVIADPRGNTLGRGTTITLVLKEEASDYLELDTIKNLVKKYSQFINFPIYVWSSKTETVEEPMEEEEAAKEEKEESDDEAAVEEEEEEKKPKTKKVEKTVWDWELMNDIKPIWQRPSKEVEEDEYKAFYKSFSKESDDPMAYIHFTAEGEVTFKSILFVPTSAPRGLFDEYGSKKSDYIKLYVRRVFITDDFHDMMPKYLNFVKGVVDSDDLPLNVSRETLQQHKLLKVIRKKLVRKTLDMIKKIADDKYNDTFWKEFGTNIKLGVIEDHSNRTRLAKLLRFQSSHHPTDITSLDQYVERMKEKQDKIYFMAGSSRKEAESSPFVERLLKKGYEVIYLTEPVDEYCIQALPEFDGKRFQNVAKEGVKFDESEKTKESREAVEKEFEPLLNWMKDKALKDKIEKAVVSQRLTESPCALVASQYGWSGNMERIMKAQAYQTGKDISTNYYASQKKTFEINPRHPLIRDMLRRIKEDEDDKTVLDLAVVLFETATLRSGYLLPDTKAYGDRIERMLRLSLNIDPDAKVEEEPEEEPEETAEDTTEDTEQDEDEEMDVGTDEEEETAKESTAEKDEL
recombinant rat GRP94, sequence (Q66HD0 22-804): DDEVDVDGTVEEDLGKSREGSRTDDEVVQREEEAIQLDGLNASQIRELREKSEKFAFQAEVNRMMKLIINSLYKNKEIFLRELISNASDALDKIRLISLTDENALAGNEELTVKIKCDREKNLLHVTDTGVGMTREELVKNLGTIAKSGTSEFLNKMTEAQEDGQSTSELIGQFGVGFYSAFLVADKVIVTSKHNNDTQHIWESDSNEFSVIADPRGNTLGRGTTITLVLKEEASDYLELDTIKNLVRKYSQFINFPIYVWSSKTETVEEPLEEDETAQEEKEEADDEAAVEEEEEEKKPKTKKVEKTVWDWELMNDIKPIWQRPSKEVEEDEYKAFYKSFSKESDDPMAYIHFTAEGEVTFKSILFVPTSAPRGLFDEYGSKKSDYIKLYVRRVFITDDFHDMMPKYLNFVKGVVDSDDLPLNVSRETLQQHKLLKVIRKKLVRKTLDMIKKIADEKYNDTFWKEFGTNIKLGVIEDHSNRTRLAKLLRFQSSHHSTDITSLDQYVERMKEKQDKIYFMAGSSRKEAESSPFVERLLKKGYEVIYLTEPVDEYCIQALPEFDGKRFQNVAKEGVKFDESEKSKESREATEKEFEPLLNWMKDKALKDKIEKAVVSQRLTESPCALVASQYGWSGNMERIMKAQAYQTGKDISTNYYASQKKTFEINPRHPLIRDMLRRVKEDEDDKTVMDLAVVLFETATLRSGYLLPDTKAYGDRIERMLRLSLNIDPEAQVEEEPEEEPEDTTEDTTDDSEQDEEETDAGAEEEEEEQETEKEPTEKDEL

B1: B5: anti-GRP94 human IgG antibody; CDRs SEQ ID NOS: 1 to 6, VH SEQ ID NO: 7, VL SEQ ID NO: 8 (antibody, V domains shown)
VH: EVQLLESGGGLVQPGGSLRLSCAASGFTFSNYYMSWVRQAPGKGLEWVSGIYPNSGSTYYADSVKGRFTISRDNSKNTLYLQMNSLRAEDTAVYYCARDPLHPARFPFDYWGQGTLVTVSS
VL: QSVLTQPPSASGTPGQRVTISCTGSSSNIGNNAVSWYQQLPGTAPKLLIYADSHRPSGVPDRFSGSKSGTSASLAISGLRSEDEADYYCGAWDASLNAYVFGGGTKLTVL
modifications: Amino acid sequence of heavy chain variable of GRP94 B5; Amino acid sequence of light chain variable of GRP94 B5
With B1, the “binding to recombinant monkey GRP94” value with recombinant monkey GRP94 is listed as “bind”. Moreover, in the series with HCT8 cells, the “cell index at the end point” value stood at 3.15±0.21 and the “cell growth inhibitory ability” value was “excellent inhibitory activity”. In the series on LoVo cells, the “cell index at the end point” value was 2.69±0.04 and the “cell growth inhibitory ability” value is listed as “statistically significant; also recorded: excellent inhibitory activity”. For the same molecule, in the series on HT29 cells, the “cell index at the end point” value is on record as 2.32±0.02 and the “cell growth inhibitory ability” value is listed as “statistically significant; also recorded: excellent inhibitory activity”. The “binding to recombinant rat GRP94” value with recombinant rat GRP94 is given as “bind”. In [1], the “changes in body weight” value is on record as “no significant changes”; the “changes in serum levels of liver and kidney functional indices (GOT, GPT, TBIL, BUN, and CREA)” value (“changes in serum levels” for short) was “no significant changes”. Further, in [2], the “tumor growth inhibition compared to PBS” value stood at 30%. In addition, the “binding to recombinant human GRP94” value with recombinant human GRP94 was “bind”. For the same molecule, the “binding to part 4 (Glu 602-Glu 799)” value in [3] is listed as “did not bind”.

B2: E5: anti-GRP94 human IgG antibody; CDRs SEQ ID NOS: 9 to 14, VH SEQ ID NO: 15, VL SEQ ID NO: 16 (antibody, V domains shown)
VH: EVQLLESGGGLVQPGGSLRLSCAASGFTFSNYAMSWVRQAPGKGLEWVSGISSSSGSTYYADSVKGRFTTSRDNSKNTLYLQMNSLRAEDTAVYYCARDRHPFSPNWFDYWGQGTLVTVSS
VL: QSVLTQPPSASGTPGQRVTISCSGSPSNIGSNTVTWYQQLPGTAPKLLIYADSHRPSGVPDRFSGSKSGTSASLAISGLRSEDEADYYCASWDDSLNGYVFGGGTKLTVL
modifications: Amino acid sequence of heavy chain variable of GRP94 E5; Amino acid sequence of light chain variable of GRP94 E5
Regarding B2, in the series with recombinant monkey GRP94, the “binding to recombinant monkey GRP94” value was “bind”. For the same molecule, the “cell index at the end point” value with HCT8 cells is reported as 3.33±0.31; with LoVo cells, 2.73±0.22; with HT29 cells, 2.32±0.08. Besides, the “cell growth inhibitory ability” value with HCT8 cells is “excellent inhibitory activity”; in the series with LoVo cells, “statistically significant; also recorded: excellent inhibitory activity”; in the series with HT29 cells, “statistically significant; also recorded: excellent inhibitory activity”. Moreover, the “binding to recombinant rat GRP94” value with recombinant rat GRP94 is recorded as “bind”. The “changes in body weight” value in series [1] is on record as “no significant changes”. Also, the “changes in serum levels” value in series [1] was “no significant changes”. For the same molecule, the “inhibitory activity against tumor growth compared to the controls” value in series [2] (controls PBS and hIgG) is on record as “did not exhibit inhibitory activity”. For the same molecule, in the series with recombinant human GRP94, the “binding to recombinant human GRP94” value was “bind”. In series [3], the “binding to part 4 (Glu 602-Glu 799)” value is “did not bind”.

B3: 3G7: anti-GRP94 human IgG antibody; CDRs SEQ ID NOS: 25 to 30, VH SEQ ID NO: 31, VL SEQ ID NO: 32 (antibody, V domains shown)
VH: EVQLLESGGGLVQPGGSLRLSCAASGFTFSNYSMSWVRQAPGKGLEWVSGIYYGSGNKYYADSVKGRFTISRDNSKNTLYLQMNSLRAEDTAVYYCAKNLASFDYWGQGTLVTVSS
VL: QSVLTQPPSASGTPGQRVTISCSGSSSNIGSNSVNWYQQLPGTAPKLLIYSNSHRPSGVPDRFSGSKSGTSASLAISGLRSEDEADYYCGTWDSSLSGYVFGGGTKLTVL
modifications: Amino acid sequence of heavy chain variable of GRP94 3G7; Amino acid sequence of light chain variable of GRP94 3G7
For the molecule B3, the “binding to recombinant monkey GRP94” value with recombinant monkey GRP94 is given as “bind”. Further, in the series on HCT8 cells, the “cell index at the end point” value is 3.40±0.16 and the “cell growth inhibitory ability” value is reported as “excellent inhibitory activity”. In the series with LoVo cells, the “cell index at the end point” value is reported as 2.87±0.08 and the “cell growth inhibitory ability” value was “statistically significant; also recorded: excellent inhibitory activity”. Also, in the series on HT29 cells, the “cell index at the end point” value is reported as 2.17±0.06 and the “cell growth inhibitory ability” value is given as “statistically significant; also recorded: excellent inhibitory activity”. The “binding to recombinant rat GRP94” value in the series with recombinant rat GRP94 is listed as “bind”. Moreover, in series [1], the “changes in body weight” value is recorded as “no significant changes”; the “changes in serum levels” value was “no significant changes”. In addition, the “tumor growth inhibition compared to PBS” value in series [2] is on record as 33%. Moreover, the “binding to recombinant human GRP94” value in the series with recombinant human GRP94 is recorded as “bind”. Also, the “binding to part 4 (Glu 602-Glu 799)” value in series [3] was “did not bind”.
